{"source": "the supplement of paper PMC12636428"}
{"system": "Saccharomyces cerevisiae", "assay": "transcriptional activation domain activity (GFP:mCherry ratio, weighted mean of sorted bins, harmonized to initial dataset scale) (arbitrary fluorescence ratio units); higher = stronger transcriptional activation", "conditions": "beta-estradiol 1 µM; induction time 4 h", "summary_of_the_method": "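Yeast diploids with a GFP reporter received barcoded protein tiles, fused to an estradiol-inducible synthetic transcription factor, at the URA3 locus. Cultures were diluted 1:5 into SC holding 1 uM beta-estradiol, incubated 4 hours at 30 °C, sorted into 8 bins on GFP:mCherry ratio, and sequenced for barcodes, with tiles under 50 reads discarded. Activation activity values come from the read-weighted mean of bin median fluorescence, averaged across barcodes and linearly placed on the initial dataset scale.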"}
{"sequence": "MVLSILEIICAVVVLHPSCNYHIFSQCICEFSSWSFAISALLVVVLFWAAVAR", "transcriptional activation domain activity": 56000}
{"sequence": "MVLVIQFYTVFFSFVYYFIFFSSSNLFSILCPPPPPPIIPIFCPLVGAFGFLF", "transcriptional activation domain activity": 42000}
{"sequence": "MVLVLLWTVEPFIFLFNLLLLILLMVWLPLILLFKLLFLNNITFLSFMIPNQL", "transcriptional activation domain activity": 45000}
{"sequence": "MVMMIVCVCVLPCFVYVLWFLCRFFIYLFYYCVHAWPRWHREGGLFSLFFFFF", "transcriptional activation domain activity": 30000}
{"sequence": "MVMVKIPFLLAFVYLFLVLHSHVLVHSFRNFTSLLVFACLLGVGMWRCVWTQM", "transcriptional activation domain activity": 58000}
{"sequence": "MVMYHWGMRCVFLYTNYIIFGFGFVFSFLFSFFFFFFPFTCIFFFLFYLIFIF", "transcriptional activation domain activity": 58900}
{"sequence": "MVNCLKVFLVVLLAPIPLAPPIFLLSFLALMVVDHEPCPYCSLLIILLLQSTC", "transcriptional activation domain activity": 31200}
{"sequence": "MVNNYWSYQYSLMPFLFFFFVSQFKSCSYFFFSLLFFSWLFRFLVSYFLSWKT", "transcriptional activation domain activity": 71500}
{"sequence": "MVPFSAFSFSLVKKFHWSAAFGGSFFLHLFFTNLNAWVFLFYLLLYVFVYQGL", "transcriptional activation domain activity": 40600}
{"sequence": "MVPFSYVWEFYFFLMSMGGLGFHIFGLGHIFLFTSHIISFFIIGYWCCLICTK", "transcriptional activation domain activity": 57200}
{"sequence": "MVPLRSFPILYALCKVLLFITILLLLIVFVCLGLQHCLLFVGCWLCVQIWCGG", "transcriptional activation domain activity": 23300}
{"sequence": "MVPPRRESAATGASQRAAIACQSCRLRKVKCDAESAASDQGCTPCRRARQECV", "transcriptional activation domain activity": 26600}
{"sequence": "MVQAVIRLILDYCRYLVVSFYQFCLCCYSPLMCVPGHGIMLITSLFLKLIHVI", "transcriptional activation domain activity": 58200}
{"sequence": "MVQCASTECSNEGVSQCGRCKQRFYCGAECQQKDWPAHKKNCKRPNAPPPQMS", "transcriptional activation domain activity": 17500}
{"sequence": "MVQCAVAECAEEGQSQCGRCKQRFYCSAECQQKDWAAHKKACKKPTATAGPAP", "transcriptional activation domain activity": 39500}
{"sequence": "MVQCAVAECTEEGKSQCGRCKQRFYCSADCQQKDWKVHKKNCKSPAATSAQLS", "transcriptional activation domain activity": 23100}
{"sequence": "MVQNWEFFVFFFLPFNSFFSFFLPFCEVYMCAVCGLWCGSPGKLLGLFYFWFV", "transcriptional activation domain activity": 36600}
{"sequence": "MVQNWEFFVFFFRFVKFTCVQCGLWCGSPGKLLGLFLFLVCCVLFFFFFFLVE", "transcriptional activation domain activity": "< 6570"}
{"sequence": "MVQNWEFFVFFFSFFIFSFCEVYMCAVCGLWCGSPGKLLGLLFLVLLCSLFFF", "transcriptional activation domain activity": 40300}
{"sequence": "MVQYIMSSKLLLSCINLLRSSILCTMLYLSFFGNFLLCHMIFGLWFYFMMHHE", "transcriptional activation domain activity": 53300}
{"sequence": "MVRGLFLCFLFSCPWRLLSCCLFLQIFLFSLHLFALKIYVSFFLVHFHACFWA", "transcriptional activation domain activity": 60900}
{"sequence": "MVRRLINLFLCRPCLLTFLCYLWVFNIFSSASDLYFLFLLSLFGFVFVMGWGS", "transcriptional activation domain activity": 38900}
{"sequence": "MVRSGILKCELLQNLSTVYPTIYLVLCCYSIVFFFNACLSFLVLFMHFAFLVK", "transcriptional activation domain activity": 52800}
{"sequence": "MVSCYIPLLIGFLGLVGPVLSRFFFLFSLFSWLIGRLVLYLILFLSSLCHGLG", "transcriptional activation domain activity": 30300}
{"sequence": "MVSFFFSLCFSSFSYLLFPHFLSFFLFFSLCCHFFPFVSTFPPILFFIMNVSF", "transcriptional activation domain activity": 67100}
{"sequence": "MVSFYYICSCAGSCWMLNARLHLWGLIFTVIFGDTVHVICLLFWFYFYRPPPF", "transcriptional activation domain activity": 41200}
{"sequence": "MVSILLFFLSSAFLLTYPYPLLNLALYLLLMFIFSTLYSLTYLLLGFFFFFLA", "transcriptional activation domain activity": 58600}
{"sequence": "MVSMQLSKLFIFSRVRRGGFFFCPCFSLVFLLFLFCIFFFHHFFSFHISFYLP", "transcriptional activation domain activity": 41400}
{"sequence": "MVSTRRQERDKEKKEKRKEEKEKEKGEGKTEKKKKKKSGDKKSKKGEGRTKEG", "transcriptional activation domain activity": 21200}
{"sequence": "MVSYLIGALDIHMYGIWFWPFWLFESWASWIGLRDVFYLFIFFPLFFSLYSTL", "transcriptional activation domain activity": 49600}
{"sequence": "MVTISTDWFGWFVYLRFSGHLGVNCFYFIIRFFLFWVAFQLHVCIFSLPLVSC", "transcriptional activation domain activity": 51400}
{"sequence": "MVTIWDFFLGGWGWAFYIICLFFFLSFYFLSFFFFSLLSSFFFFGYSPSAVWV", "transcriptional activation domain activity": 29600}
{"sequence": "MVTVGILHYLLIGNLLTNVLFGVYVQMAWKCSCIFYRKYQMGQVHSYHLFSFI", "transcriptional activation domain activity": 80900}
{"sequence": "MVVFGCRCNVMLYILFCNLRFLLRGAVCIQILTMFILWCAMTEIVLSVLPILS", "transcriptional activation domain activity": 47300}
{"sequence": "MVVFLFSFRVWVLLWICKISFINFVPMSTCRGLMVVRLRLNQTWGIRSLVPWL", "transcriptional activation domain activity": 29600}
{"sequence": "MVVFLYLVIYHWSKVNRVSFRCAAFCCIAHLIENVFFVIMVKVKGPSKFCAGI", "transcriptional activation domain activity": 76900}
{"sequence": "MVVILYFFFYIFIKNRLGLVRVIFLFLVYHIQLLVLFFFGPFLPLVLLLLLLL", "transcriptional activation domain activity": 35900}
{"sequence": "MVVIVLQIGVSLYKLLVLLLWYVEWILYLFLLVEDRLLYQNMLLFEAPTLVYT", "transcriptional activation domain activity": 63300}
{"sequence": "MVVIWGLDLKEMQWWKFKGSYMFNQTYHLRRTKMIVYQIAMIFMVCSESVGTA", "transcriptional activation domain activity": 31600}
{"sequence": "MVVLCPYNVLQKRERDAFLLALRRCLFAPINHPVYFSDVVFADIFTSYAKVLG", "transcriptional activation domain activity": 44000}
{"sequence": "MVVLTICQLHHWNAGWDFHLLFWVCLFYSVKKLYDLILWLNFILTSKDLVKSN", "transcriptional activation domain activity": 40600}
{"sequence": "MVVSLLIIRCHSTASSNRWLLLGYGLHFLIRFFYLITMLLITRLNFVLSFFAA", "transcriptional activation domain activity": 81000}
{"sequence": "MVVVSCLSGAFLFFLFVHVVSGALFTYYSLLSLIFSLYHSILFVCWADLFFFF", "transcriptional activation domain activity": 57100}
{"sequence": "MVWFWFWLRYLFFFFFLFSKNTLIGLFLLLLLLLHLFLRSLPILLVCASRVFF", "transcriptional activation domain activity": 53300}
{"sequence": "MVWGCAFFISSQFLFPWLLWVFPLSLLSLGLSHTLELDSVFSLLLIFFTIPLF", "transcriptional activation domain activity": 34500}
{"sequence": "MVWIRSKSPIKWLYIWLYYVRRPRINVASYTTKWVTIESELVFLAENFLDDKC", "transcriptional activation domain activity": 33300}
{"sequence": "MVYCISFCLALFESLLYSIVADTNILIHYFLFFLLLFCQFVYFLNNTFFIFLS", "transcriptional activation domain activity": 51800}
{"sequence": "MVYMSSVNVWGLDIYYSRVSIYLFFFPSLFFLWAASMSLFPYYFLPSLFYIVL", "transcriptional activation domain activity": 26500}
{"sequence": "MVYQGGVTFLCNFYILFPFFPFFFCFCKVSFLFCFCIFLFFCSWDGGLFLFLF", "transcriptional activation domain activity": 62700}
{"sequence": "MWCTRWFLPLLLLPLPTAPPFFLALFLISLTLHSKPCFYCILLLTTLFLTSCY", "transcriptional activation domain activity": 45300}
{"sequence": "MWCTRWFLPLLLLPLPTAPPYFLLLFLFSLTMHAKPCFYCIVLLTTLFVSSCY", "transcriptional activation domain activity": 47800}
{"sequence": "MWCTRWVLPFLLLPAPTSPPYFVLIFLLSLVMHARPCIYCIFFLIMLFITSNY", "transcriptional activation domain activity": 47000}
{"sequence": "MWCTRWYIPLLLLPIPTAPPYFLILFLFSLTLHARPCFYCILLLLTLFLSSCY", "transcriptional activation domain activity": 58500}
{"sequence": "MWEVLWAFSFLAGDIFVFFLSLALYIYPNHLVSPLLPGCVKPPVGMYWFLVFQ", "transcriptional activation domain activity": 44000}
{"sequence": "MWFLHPLPFPLASSTWLHFVVLSFYIFFFLPFPSCALVLFWCWFFLLVRLLTS", "transcriptional activation domain activity": 39400}
{"sequence": "MWGILYSLQYHQNFPFVACFLSDLFEKIIHHHFFYFSLSSFSLFLIFHFWFFF", "transcriptional activation domain activity": 52000}
{"sequence": "MWGRWVGWSLIFLELYLDHLILQFIPPTRFIVTLFFFFSFLFIWYFCLLSLSL", "transcriptional activation domain activity": 28800}
{"sequence": "MWGVLCNWLKHNGMVFSVQCFTFDFLFSFPLSLFFPFFLFSFFLFFLYSFAII", "transcriptional activation domain activity": 50100}
{"sequence": "MWGWNGKEIHFSFTEVFLKFLIWLVHSFLRSFLGFSNGFFLTFPLVGFFFSFL", "transcriptional activation domain activity": 54800}
{"sequence": "MWHWLFYLFFSFFLQFLLFLFSFSSSFNFFYFCFPFLLFSVSFFCFCFWFLFF", "transcriptional activation domain activity": 50000}
{"sequence": "MWLFLLMFYIVLWLRKAGAFISSSFSSFSVLSFSYLFLCGYLPFSFLFLTFSL", "transcriptional activation domain activity": 54200}
{"sequence": "MWLIWLIWLLALLVDLFSFSVLFFFSLSLFLSFFWFFFFSFFQSFFPFLAVSF", "transcriptional activation domain activity": 66900}
{"sequence": "MWLLFYARACLSLLWFTSARVLFFSSFLTFSFLIIWLLGSFDIFRILVLFSFF", "transcriptional activation domain activity": 87100}
{"sequence": "MWLLHFSFLRVLPLFLLMLRCLLLAICIVTYINGPTLVFSHPLITIYSLTLLA", "transcriptional activation domain activity": 56200}
{"sequence": "MWLVEVQLLHQSHSLLSHIICLFFLSPHLPSFVFSGALFVYSVMLVSLFFLYL", "transcriptional activation domain activity": 37400}
{"sequence": "MWLVKCTYILYIYIFGKWKVREVLELTRVFFFFFSFFFFLFFFPFFFFFFFFF", "transcriptional activation domain activity": 59900}
{"sequence": "MWLVVCIDGPVLSVLPRTILYLCVLLLLTLLASCSERSFAFARPLSSSCIFSY", "transcriptional activation domain activity": 42600}
{"sequence": "MWMSLLHFHTFTIFLTFFFFFFFFFCLPPFVSLLTLFLVEIFLSWREGFLPHP", "transcriptional activation domain activity": 39400}
{"sequence": "MWSFFFFLFFFGFCFLVFWPNLFFLFFFHDSCPFVLLLFLFHLFHLPVFPRSG", "transcriptional activation domain activity": 40300}
{"sequence": "MWSLCILLVGLLIWYIVFFSYPPPNRIYLFSPSLGVCLVSFFFFLWGLFGGVF", "transcriptional activation domain activity": 53400}
{"sequence": "MWTFGMIQLYYSPYWGDTRWFWLDYPKTLLSPTFKWYYLIQFAFWLQQLLLAL", "transcriptional activation domain activity": 73400}
{"sequence": "MWTQASVATLPTLPFTGISLSYFPCLFLLFSPDIFIFLFFLLFIYLFIFSFLL", "transcriptional activation domain activity": 55900}
{"sequence": "MWTSLGCYSCLLCLLLHVVYVPSLLVPSQHPFLSSCLGAVGLTFTWMICCFFP", "transcriptional activation domain activity": 56500}
{"sequence": "MWTVLVGFIRGFLLLLWHLAYPFHFFLYFQLILSSHRLEWLISLFVDAMTGIA", "transcriptional activation domain activity": 33400}
{"sequence": "MWVGELLGYYCTMALSKALGCKVRLLRAWAEMHNICGFYSRDSIPCRMYASRV", "transcriptional activation domain activity": 61800}
{"sequence": "MWVINRAFLEFYFIFCIVFTVHLVCFCFFWLIFLFCLLHASFLLCDFPFFFYY", "transcriptional activation domain activity": 41100}
{"sequence": "MWVLGRSWAVLSTFFLSLLRLFFCLLFLLGLDFWSGLLPFLCFFLLCSYCFSL", "transcriptional activation domain activity": 56400}
{"sequence": "MWVTQHCLLATQWALLCVPPFRGLLLLLLFLYVFKFLFGLRIFILYLVSMLVM", "transcriptional activation domain activity": 46100}
{"sequence": "MWWAFIFFFLLSFFLFLLFLGWLAGWQVCCWGFWFLVGFHFGWLGWFGCGITS", "transcriptional activation domain activity": 32000}
{"sequence": "MWWALCFFFFLFIFVILGFVGLLVCWFVGWLAGTFVGFSGSWFSFWVAWVVWV", "transcriptional activation domain activity": 60500}
{"sequence": "MWWRADGHYLNPLSQIFFSCEFWFFLLLFQMGDGFAFFFFLSIGLVTSFFFFF", "transcriptional activation domain activity": 35400}
{"sequence": "MWYFSRCTRWFLPLLLLPMPTAPPYFLLLFLLSFILHAKPCFYCVILITSLFI", "transcriptional activation domain activity": 60200}
{"sequence": "MYCACGQDGKSPFVMRCVLCFGFVFLFLFLLFFSSLLISLLFIFSHCSMLLPI", "transcriptional activation domain activity": 23000}
